From the Human Domainome abundance scans (Beltran et al. 2025)
± gives the uncertainty stated by the source.

B1: Segment polarity protein dishevelled homolog DVL-3, residues 2 to 81; numbered along this chain, Q92997 (parent)
chain: GETKIIYHLDGQETPYLVKLPLPAERVTLADFKGVLQRPSYKFFFKSMDDDFGVVKEEISDDNAKLPCFNGRVVSWLVSA

Variants of: B1
Assay: abundance fitness (aPCA) (normalised: wild type 0, dead -1); higher = more abundant; growth selection in yeast, the domain comes from the species named
Settings: Homo sapiens

Variant	abundance fitness
T28M	-0.604 ± 0.11
A24R	-0.492 ± 0.062
D61Q	-0.082 ± 0.086
R72L	0.216 ± 0.05
L9P	-0.695 ± 0.13
V74M	-0.198 ± 0.14
L66V	-0.864 ± 0.11
A24M	-0.546 ± 0.15
V78S	-0.587 ± 0.091
Y7E	-0.608 ± 0.13
D10H	-0.568 ± 0.16
C68E	-0.645 ± 0.34
V78G	-0.558 ± 0.1
G11P	-0.668 ± 0.12
L66I	-0.461 ± 0.19
V74W	-0.243 ± 0.12
G71R	-0.895 ± 0.15
E2N	0.052 ± 0.09
V73F	-0.684 ± 0.089
L9K	-0.574 ± 0.095
V35S	-0.257 ± 0.073
S79L	-0.67 ± 0.092
G11L	-0.389 ± 0.068
W76E	-0.891 ± 0.14

Variant	abundance fitness
L9M	-0.283 ± 0.079
S79G	-0.287 ± 0.054
L9A	-0.518 ± 0.075
T3P	-0.509 ± 0.092
E57Q	0.256 ± 0.055
V74K	-0.953 ± 0.24
A24H	-0.505 ± 0.17
F52I	0.036 ± 0.077
L9E	-0.546 ± 0.092
Y16P	-0.869 ± 0.15
S40N	0.167 ± 0.096
A64W	-0.672 ± 0.11
G34D	0.418 ± 0.08
I5C	-0.535 ± 0.11
F45R	-0.669 ± 0.067
E25S	-0.115 ± 0.064
L66M	-0.664 ± 0.13
L20S	-0.664 ± 0.094
Q37I	-0.179 ± 0.11
V54T	-0.178 ± 0.082
D51N	0.25 ± 0.063
L22H	-0.617 ± 0.17
G71S	-0.512 ± 0.087
A64Y	-0.894 ± 0.27

Variant	abundance fitness
W76C	-0.737 ± 0.19
D49T	0.111 ± 0.069
L36F	0.097 ± 0.1
I5P	-0.543 ± 0.11
S60T	-0.005 ± 0.055
S60W	-0.115 ± 0.057
L22A	-0.604 ± 0.085
L9D	-0.535 ± 0.13
A30Y	-0.468 ± 0.16
E2V	-0.129 ± 0.051
A80L	-0.239 ± 0.13
Q37G	0.048 ± 0.042
G11W	-0.466 ± 0.086
F69V	-0.078 ± 0.053
D49G	-0.046 ± 0.049
P39A	-0.14 ± 0.064
R38I	-0.181 ± 0.1
I59D	-1.21 ± 0.32
K42M	-0.659 ± 0.13
V27E	-0.624 ± 0.099
R72F	0.219 ± 0.052
D51L	-0.32 ± 0.077
L29T	-0.608 ± 0.098
T3E	-0.638 ± 0.1

Variant	abundance fitness
D50F	-0.645 ± 0.15
K65Q	0.127 ± 0.074
A24T	-0.51 ± 0.11
D50Y	-0.287 ± 0.095
L20F	-0.336 ± 0.16
S75T	-0.519 ± 0.11
K56G	-0.63 ± 0.066
A80D	0.267 ± 0.086
K42V	-0.841 ± 0.11
L66N	-0.825 ± 0.24
M48N	0.567 ± 0.062
L36S	-0.629 ± 0.11
L9Q	-0.825 ± 0.13
V74C	-0.658 ± 0.12
Y41H	-0.304 ± 0.16
P23Y	-0.517 ± 0.21
V78W	-0.228 ± 0.12
I6M	-0.502 ± 0.097
K46W	-0.227 ± 0.072
F32L	-0.337 ± 0.07
Y16K	0.074 ± 0.066
T14D	0.038 ± 0.074
R26P	-0.675 ± 0.11
D31T	-0.217 ± 0.087

Variant	abundance fitness
M48G	0.316 ± 0.038
D50T	-0.074 ± 0.062
A30Q	-0.465 ± 0.1
A64L	-0.904 ± 0.12
Q37K	0.165 ± 0.062
D62L	-0.563 ± 0.081
L17S	0.245 ± 0.047
Y41G	-0.496 ± 0.049
A24E	-0.415 ± 0.087
I59E	-0.677 ± 0.12
L22F	-0.502 ± 0.17
L36H	-0.988 ± 0.47
Q12I	0.083 ± 0.078
Q37D	0.225 ± 0.066
F69W	-0.191 ± 0.14
A64F	-0.786 ± 0.23
P39H	0.073 ± 0.11
V73H	-0.573 ± 0.12
Y7H	-0.78 ± 0.26
F32R	-0.543 ± 0.073
V55M	-0.024 ± 0.066
A30H	-0.692 ± 0.19
P67K	-1.02 ± 0.22
G53V	-0.005 ± 0.046

Variant	abundance fitness
L66K	-0.644 ± 0.11
P21S	-0.313 ± 0.069
I6Q	-0.28 ± 0.088
A24N	-0.415 ± 0.15
R72H	0.183 ± 0.06
F69G	-0.605 ± 0.089
M48Q	0.089 ± 0.066
V78D	-0.708 ± 0.13
L17E	0.75 ± 0.046
D51V	-0.113 ± 0.077
E25H	-0.022 ± 0.098
V73A	-0.511 ± 0.12
A24Q	-0.074 ± 0.084
D31A	-0.099 ± 0.065
V35N	-0.375 ± 0.19
F32H	-0.447 ± 0.23
R26S	-0.068 ± 0.055
K65I	0.263 ± 0.1
L9T	-0.767 ± 0.12
E57D	-0.904 ± 0.24
I5A	-0.837 ± 0.11
D10W	-0.866 ± 0.12
V55H	0.365 ± 0.075
S79F	-0.504 ± 0.16

Variant	abundance fitness
V18F	-0.707 ± 0.19
F43P	-1.12 ± 0.26
R72A	0.163 ± 0.06
V35H	-0.301 ± 0.15
L77M	-0.395 ± 0.21
G53Y	0.223 ± 0.14
V27D	-0.987 ± 0.24
T28H	-0.411 ± 0.14
K46P	-0.437 ± 0.096
G53P	-0.211 ± 0.071
E25F	-0.913 ± 0.22
F43W	-0.58 ± 0.097
P39S	0.051 ± 0.057
V35T	-0.167 ± 0.074
D50I	-0.421 ± 0.12
V18C	-0.558 ± 0.11
A24G	-0.168 ± 0.048
P23H	-0.55 ± 0.18
D51G	-0.004 ± 0.079
P39K	0.194 ± 0.065
W76R	-0.72 ± 0.075
N63F	-0.661 ± 0.21
R72S	0.149 ± 0.046
